In article PMC4764120, “Crystal Structure of Alcohol Oxidase from Pichia pastoris” (PLoS ONE, 2016):

Target: the molecule itself
Experiment: crystal structure; X-ray, 2.35 Å, space group P21, eight monomers in the asymmetric unit; crystals grown at 4°C in 100 mM HEPES pH 7.5, 200 mM CaCl2, 33.3% PEG 400; interfaces analysed with PISA

B1: alcohol oxidase AOX1 from Pichia pastoris (enzyme, UniProt P04842 1-663, looked up)
chain: MAIPEEFDILVLGGGSSGSCIAGRLANLDHSLKVGLIEAGENNLNNPWVYLPGIYPRNMKLDSKTASFYTSNPSPHLNGRRAIVPCANVLGGGSSINFMMYTRGSASDYDDFQAEGWKTKDLLPLMKKTETYQRACNNPDIHGFEGPIKVSFGNYTYPVCQDFLRASESQGIPYVDDLEDLVTAHGAEHWLKWINRDTGRRSDSAHAFVHSTMRNHDNLYLICNTKVDKIIVEDGRAAAVRTVPSKPLNPKKPSHKIYRARKQIVLSCGTISSPLVLQRSGFGDPIKLRAAGVKPLVNLPGVGRNFQDHYCFFSPYRIKPQYESFDDFVRGDAEIQKRVFDQWYANGTGPLATNGIEAGVKIRPTPEELSQMDESFQEGYREYFEDKPDKPVMHYSIIAGFFGDHTKIPPGKYMTMFHFLEYPFSRGSIHITSPDPYAAPDFDPGFMNDERDMAPMVWAYKKSRETARRMDHFAGEVTSHHPLFPYSSEARALEMDLETSNAYGGPLNLSAGLAHGSWTQPLKKPTAKNEGHVTSNQVELHPDIEYDEEDDKAIENYIREHTETTWHCLGTCSIGPREGSKIVKWGGVLDHRSNVYGVKGLKVGDLSVCPDNVGCNTYTTALLIGEKTATLVGEDLGYSGEALDMTVPQFKLGTYEKTGLARF
notes: Alcohol oxidase AOX1, Pichia pastoris, UniProt P04842, 663 residues as printed; identified by mass spectrometry as the host's own protein; the final crystallographic model holds residues 2 to 663 of each monomer; No tag: the protein comes from the expression host itself; also called methanol oxidase AOX1
  stoichiometry N: 8
